Source: the supplement of paper PMC12764529
± gives the half width of the 95% confidence interval.

How the values were obtained:
[1] = folding stability dG unfold (combined trypsin and chymotrypsin); higher = more stable
In short: (§1)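 K50 was inferred by Bayesian fitting of sequencing counts obtained after protease digestion of designed mini-proteins. Unfolding free energy was derived by comparison with a sequence-predicted unfolded-state K50 and a shared folded-state K50, for each protease or both combined. The mini-proteins were under 80 residues, had no cysteine, were carried in a PA-tagged cDNA display construct, and were kept only if AlphaFold2 dimer inter-PAE exceeded 15.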

[2] = folding stability dG unfold from trypsin proteolysis; higher = more stable
In short: as §1

[3] = folding stability dG unfold from chymotrypsin proteolysis; higher = more stable
In short: as §1

Sequence | folding stability dG unfold [1] [kcal/mol] | folding stability dG unfold [2] [kcal/mol] | folding stability dG unfold [3] [kcal/mol]
SPLERLLRAILNAPADTTIVVPLPDDLVAVIRIEPATTELDGVPYRFLVARIEIRNPDGVLLGELTLVLPLS [r1_386_TrMRF] | 5.63 ± 0.11 | 3.88 ± 0.086 | 5.78 ± 0.091
SPLKPGDVYTEPGGPLLRVEKVTLSEDPNKFPKKLEIELVPIPPPTPTLEEYTLPNGERRTLVLFEFDGPSA [r9_914_JUSTAS] | -0.217 ± 0.42 | -0.308 ± 0.31 | -1.17e-05 ± 0.5
SPLTLTFENPENGIRVELVFDPETPEVHAKVYAPNGELLSEETFEVEEKKITLRFNLEGKEFELEIELDESA [r9_385_TrMRF] | 4.16 ± 0.11 | 3.86 ± 0.12 | 4.25 ± 0.082
SPNFERYEHTIEIELPNGRRIKIDVEMYRPPDGNPWARIKIEVEDNNGEPKKKDIWMPMNDAEKAIEDLLSA [r9_189_TrROS] | 1.99 ± 0.43 | 1.9 ± 0.14 | 1.85 ± 0.093
SPPGLRIRIESPDNGEPIPFPIPPNVEVDVKRDKNGNFIATIKIQNPENGKKWTIEIDAPMRIVEIEPVPSA [r9_467_TrROS] | 2.76 ± 0.21 | 1.6 ± 0.076 | 3.35 ± 0.16
SPPHWMIMPTVERKDPNGEKKTVTYMIPVPPGNWDKMLDNIADEAGDPDLKIKEIEPSKNGFIMIKLKVKSA [r9_1101_TrROS] | 0.0989 ± 0.54 | 0.497 ± 0.17 | 0.604 ± 0.48
SPPIEIKPAPENYLIAKIIDPKTNKVYYILIPKDAKLDQPALVYHPDKKEYIPLKEILDLLKKGYPLSISSA [r9_250_TrMRF] | 2.35 ± 0.14 | 2.09 ± 0.075 | 2.43 ± 0.059
SPPITFFRVPAEYDEPNGKRTIKVRIWRIRDVEKDPNGGPKMDMEPQPVTFKLPVPPGAPIPPGDWIFAFSA [r9_277_TrROS] | 0.831 ± 0.34 | 1.57 ± 0.16 | 0.315 ± 0.35
SPPITIEIEYERNPDNGMFPLKVKAWNPDGEPIGEREIPFKGSPEEMRERAMKEAKELADKNGWPIEIEWSA [r9_31_TrROS] | 0.331 ± 0.19 | -0.436 ± 0.17 | 0.637 ± 0.18
SPPNFEVKEVEIPVPWEEIKELLPPGFTDIEPTGDRWTLHFKHPGYFVMIEIQWDPEDNQFPVKISVFKMSA [r9_604_TrROS] | 3.35 ± 0.19 | 2.59 ± 0.11 | 3.76 ± 0.054
SPPNFRMEQEEIEIEIRFPDGWRVSVEIEIHRMRFPDGDEMLHIDIKVEADPNNPGMRKLAKNLVEEIINSA [r9_908_TrROS] | 1.85 ± 0.41 | 1.24 ± 0.21 | 2.14 ± 0.21
SPRIEVRKLPDGTELVRIEIPTPEGNPVVVEATVTYDPETGTVTQEVTLTDPNVPPEVKALLESFTLTVPSA [r9_715_JUSTAS] | 1.4 ± 0.042 | 1.12 ± 0.019 | 1.54 ± 0.028
SPSPAAKNMKPIRIRLRDPNGKKYKIENINVGPDGQFQIRIKFPGNTHTQTLPPGAPFELPPDRIEEVEISA [r9_993_TrROS] | 0.959 ± 0.092 | 0.808 ± 0.079 | 0.971 ± 0.2
SPVPLDVPPGSRAVLVFRFPDGSRAVAVFDPVTGKATVTFYPPDGSKVTRTFDGPDLADLPPGVERIAPLSA [r9_1110_TrMRF] | 2.34 ± 0.14 | 1.77 ± 0.11 | 2.7 ± 0.12
SPVVLPLTLGDRPILARLYPGEGVLEVRDPDGRLVGRATVTPNRINLVFRALDDDTTLVFELPVLPPDDPSA [r9_963_TrMRF] | 1.84 ± 0.12 | 1.66 ± 0.07 | 1.82 ± 0.045
SRKFLNDPNIDKVEPTIVIPMSPEERKELAQNLANGIYNYLREHGWPLPPNIEIKIIPFPSPEQMKKMMKSA [r9_204_TrROS] | 0.901 ± 0.13 | 0.6 ± 0.15 | 1.09 ± 0.17
SRKISIWIPPDDPMMTPEEIANKLAQQGYPVEIDDVEWNPENGWVVITVEIEEPNGEPIADIEVWIPWNDSA [r9_879_TrROS] | 1.65 ± 0.19 | 1.83 ± 0.098 | 1.6 ± 0.057
SRLTVTSEVDPNGNSSTSTITYYDPSTGQPYTLTVTITKLPDGTYKVTITFPSNSTTTTFTLAPDETINLSA [r9_1220_JUSTAS] | 3.04 ± 0.22 | 2.58 ± 0.2 | 3.27 ± 0.055
SSASAMAPLPVEVYTLTVTVVKPGGEEVGTYTFTFNSPEEAKAFLEAFAKEKGLTIKKATLTRTPDTSLSSA [r9_1226_JUSTAS] | 4.16 ± 0.1 | 2.7 ± 0.12 | 4.59 ± 0.054
SSEKVELAKKYLKEKGIPIKEFKEITPTGITILAPNGKWITISVKPGDLNEITINPKKSSDGGYENDIPYSA [r9_809_JUSTAS] | 0.669 ± 0.088 | 0.215 ± 0.049 | 0.92 ± 0.09
SSGIAEIVAANPGVSLEELAKLIKEKLKAELPTDEPIEIKMTKSPDGYKITITIKDENNWHSDEYYVKPGSA [r9_805_JUSTAS] | 3.07 ± 0.19 | 2.95 ± 0.2 | 3.14 ± 0.16

Sequence | folding stability dG unfold [1] [kcal/mol] | folding stability dG unfold [2] [kcal/mol] | folding stability dG unfold [3] [kcal/mol]
SSIEEQIREIFEPKGMEITDVKTEKKPDGTTVAKFTYTDPVKDEKGNPISTLTKEGTVVFKNGKIVEVEESA [r9_519_JUSTAS] | 2.61 ± 0.049 | 2.27 ± 0.052 | 2.779 ± 0.016
SSIIIPGLPAEQARQLAKEFAEHYPNYDVKVEYHPDNGMITVDIEMPHKDPDGKPKGWRKMNINIHIWDPSA [r9_378_TrROS] | 1.23 ± 0.2 | 0.868 ± 0.12 | 1.53 ± 0.17
SSIPLDVPPGERVVRKGVFPDGSELTATYDPTTGRWTVTYYPPDGSVRTSVVPGAALASLPPGFTETRLESA [r9_1110_JUSTAS] | 2.02 ± 0.14 | 1.45 ± 0.043 | 2.28 ± 0.034
SSITVVETREERVTLPDGREVTRRETRVVELSEEELRRLLRERLREALREAGIEEVTEEDLDSPEVLAALSA [r9_263_TrROS_Hall] | 1.86 ± 0.12 | 1.2 ± 0.054 | 2.2 ± 0.032
SSLENLEPVSYDVTVEEGPTSPSGVTYTRITITEPGGSTATVTVTPESLTLDYSVRDKARVEALVRELLESA [r9_662_JUSTAS] | 1.04 ± 0.064 | 0.957 ± 0.019 | 0.989 ± 0.11
SSLTVRLELEVTFEDGLRVRVEVEAELREVDGKLELRVRVRVEVRPLPPPPPPPPPPRLSDEQLEELRKRSA [r9_965_TrROS_Hall] | 1.9 ± 0.19 | 0.786 ± 0.19 | 2.34 ± 0.092
SSMPTTVTLTNPADSTTTPLPVPSNISVETTTLPDGSTAGTVTVTDPSTGKTTTITFSGPNTLTSTSATSSA [r9_467_JUSTAS] | 0.804 ± 0.13 | 1.05 ± 0.03 | 0.398 ± 0.26
SSMYLLTVEITRPDGSVSSKTVPVNFAPGTTIDELLKALNLPKSSLATVTVTATEYSGGPPVTSTHTITLSA [r9_755_JUSTAS] | 2.34 ± 0.06 | 2.02 ± 0.065 | 2.44 ± 0.052
SSPGKITTYEVTLTLPGPRPMTSTVDPSGVMTATVPDGTKITATIVPGPGTLTITTTFPDGTTSTSTISASA [r9_99_JUSTAS] | 1.26 ± 0.074 | 1.26 ± 0.061 | 1.21 ± 0.058
SSPKIVVEVTLDGNPRTITIPSSLSLEEIKEKILEALKEEGIEDVPIEEIKIKKEEELPTEEGESKIVVSSA [r9_1053_JUSTAS] | 1.76 ± 0.15 | 0.999 ± 0.066 | 2.08 ± 0.087
SSPLDPAGRFTIEVVFTTSADGTLTATFTITAPGGVPLKTLTRSFTNPSPGKAAAVEEAEALKAEIEAAASA [r9_739_JUSTAS] | 1.97 ± 0.064 | 1.3 ± 0.025 | 2.35 ± 0.047
SSPSSVPDAVVQALKEAHPDVVSIEVTPLPPESTRISVTLKSGSGSSTVSFSIPSPEGVTRTYTVSVSNPSA [r9_678_JUSTAS] | 1.04 ± 0.064 | 0.839 ± 0.063 | 1.18 ± 0.091
SSPVSFSTSTTSPPSPSSLPDGSTLSTTTTTYTAPDGSRYTVTSTTLTPPTGPATPVSTTTTSTGSSGPSSA [r9_394_JUSTAS] | 0.872 ± 0.046 | 0.514 ± 0.018 | 1.08 ± 0.043
SSSIKTSTTTSTEPATGTTTTTTTVTYPDGTTTTTTTTTLPDGTTTVTTTTTPPDGSVTSTTTTLTSLTTTS [r1_461_JUSTAS] | 0.904 ± 0.17 | 1.24 ± 0.1 | 0.655 ± 0.043
SSSMPVTVEIEAKKLSNGKYLAKITVKDANGNELEEYEKEMDESEVEKLKEELKKKYPNMKVTMTYKDELSA [r9_374_JUSTAS] | 4.17 ± 0.45 | 3.3 ± 0.34 | 4.17 ± 0.14
SSSPLPSPVTLPNGTVVYYFPDTGLVLTLDPKTGTGTVTYVTTDPQGNPTFFPSTVTFDPPTGKVVEVVASA [r9_122_JUSTAS] | 2.39 ± 0.079 | 0.904 ± 0.058 | 2.77 ± 0.033
SSSVTRTYTVTLPGSTVSIEITEKPNPEGSTTVTITVTTTKPGGGSTTTTVTKNITGLTLEDILKEAISSSA [r9_217_JUSTAS] | 3.57 ± 0.057 | 3.38 ± 0.092 | 3.68 ± 0.05
SSVEELSPEQRREQLRELLRQIREARREGDPEEERRLLEELRRLIEQLPDEEREEVRRLLEELGLPVEELSA [r9_182_TrROS_Hall] | 4.05 ± 0.19 | 4.27 ± 0.21 | 3.72 ± 0.19
SSVEIKLYYDPVTNKYYVEITITAPPGDPAAVEARAAAVREEVKEALKAKGLVPDEIKVTVNVVSPAVPGSA [r9_117_JUSTAS] | 4.37 ± 0.21 | 4.09 ± 0.15 | 4.27 ± 0.21
SSVTLTLTAPLPDNTTVTVEVTLTPLPEKGLVVANPTVTVTTLTPDADGNLTTSSAPATFTVVVPPELAFSA [r9_1137_TrMRF] | 1.86 ± 0.11 | 1.48 ± 0.061 | 2.1 ± 0.11
STAEELATYIAKTIQKRFPPGYRITDVRIERNPNGYVELPFTIEPPNGRPWTVEIWIDADNGEIEIEIQWSA [r9_219_TrROS] | 2.92 ± 0.068 | 2.47 ± 0.06 | 3.183 ± 0.017
